A short description of the series: protein stability index of a GFP-peptide fusion (GPS, HEK-293T) (PSI 1-6); higher = more stable.
Where [1] appears, read: treatment: DMSO, c terminus: a fixed tail appended.
[2] abbreviates: treatment: MLN4924 1 uM, 8 h, c terminus: a fixed tail appended.

± gives the standard deviation.
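Further: 24-mer peptide tiles fused after GFP, lentivirally expressed, FACS-sorted into six equal bins by GFP/DsRed ratio, decoded by Illumina sequencing, PSI is the read-weighted mean bin number.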

As to DARVKRKLRGPEPAATEAYGSGDT [TBX6], the protein stability index turned out to be 5.16 ± 0.3 under setting [1] and 5.24 ± 0.22 under setting [2].
Regarding DCQAGLNFADEDEAQAFRALVQEK [WAS], the protein stability index by setting is: under setting [1], 5.17 ± 0.22; under setting [2], 5.08 ± 0.16.
The like results for DDTETVPSEQSHASGKLRKKKKKQ [TCF25] were, in that order, 5.52 ± 0.44 and 5.88 ± 0.17.
The like results for DDVISRIDRMFPEMSIHLSRPNGT [MED27] were, in that order, 3.25 ± 0.24 and 3.36 ± 0.25.
The like results for DDVLPWRRTAENKLDTKYPYVCHA [DCTD] were, in that order, 3.331 ± 0.026 and 3.31 ± 0.39.
As to DENREVLQTLLYFLSDVTAAVKEN [DLC1], the protein stability index turned out to be 2.14 ± 0.28 under setting [1] and 2.33 ± 0.19 under setting [2].
With DESLTDLEAQPYEAVFLRAVKLYN [P3H4], the protein stability index was determined as 2.58 ± 0.21 under setting [1] and 2.71 ± 0.36 under setting [2].
With DFDEEYFSNTSELAKDFIRRLLVK [DAPK3], the protein stability index runs as follows: under setting [1], 2.77 ± 0.28; under setting [2], 3.12 ± 0.3.
The like results for DFEFLAFWQTQYNNMNAVNLFFAW [PKD2L1] were, in that order, 3.17 ± 0.5 and 2.93 ± 0.55.
For the sequence DFGSAAASGSFPSQVTATSGNGDF [CLINT1], the protein stability index is 4.95 ± 0.17 under setting [1] and 4.69 ± 0.26 under setting [2].
Regarding DGKRVIVVFHCEFSSERGPRMCRY [CDC25A], the protein stability index reads like this: under setting [1], 2.64 ± 0.53; under setting [2], 2.73 ± 0.78.
For the sequence DGNGGQFREVYVGKETMCTVDGLH [TRIM9], the protein stability index is 3.94 ± 0.37 under setting [1] and 4.11 ± 0.28 under setting [2].
Regarding DGSVLLIPRTMADQQARRQERKPK [NFE2L1], the protein stability index was 3.5 ± 0.14 under setting [1] and 3.63 ± 0.31 under setting [2].
The like results for DIARMLYKDTCHELDELQLCKNCF [ZMYND11] were, in that order, 2.27 ± 0.14 and 2.52 ± 0.49.
With DIKDDIYDPTYKDKEGPSPKVEYV [SCD], the protein stability index turned out to be 4.92 ± 0.14 under setting [1] and 4.68 ± 0.17 under setting [2].
DINGLRRILDELTLCKADLEAQVE [KRT36] registered a protein stability index under setting [1] of 3.02 ± 0.33 and a protein stability index under setting [2] of 3.14 ± 0.25.
As for DISERPSVDDIESETGSTGALETR [C2CD2L], the protein stability index was 5.56 ± 0.22 under setting [1] and 5.59 ± 0.34 under setting [2].
Regarding DKHGCPAYVSPEILNTTGTYSGKA [TRIB1], the protein stability index came to 4.44 ± 0.26 under setting [1] and 4.52 ± 0.12 under setting [2].
The like results for DKNRCELLSFLLLMDYIGINLATM [EDNRA] were, in that order, 2.77 ± 0.49 and 2.92 ± 0.32.
The like results for DKSDQSLPNASADSLGGSQEMVQR [TRAF3IP2] were, in that order, 5.36 ± 0.17 and 5.33 ± 0.34.
As to DLDDFAGFSCNQGRYPLIQTLRQE [CHIT1], the protein stability index is, setting by setting: under setting [1], 3.44 ± 0.2; under setting [2], 3.48 ± 0.082.
The like results for DLMGVLTKGVREVERALQLPREPG [FEM1A] were, in that order, 2.82 ± 0.17 and 2.69 ± 0.37.
The like results for DLPSSTPVANSGTKPKTTAIQGIS [DLC1] were, in that order, 4.75 ± 0.2 and 4.93 ± 0.065.
The like results for DLRLRLDHLGWVARGTGSGEDSST [RTN2] were, in that order, 3.53 ± 0.43 and 4.15 ± 0.37.
For the sequence DLSDLLQVDSLRPASFPTWGCDLG [BRF1], the protein stability index is, setting by setting: under setting [1], 2.53 ± 0.28; under setting [2], 2.73 ± 0.31.
Consider DMKAMSPENQEYFEKHRWPPVWYL [RHOBTB2], for which the protein stability index is 2.47 ± 0.17 under setting [1] and 2.67 ± 0.36 under setting [2].
Turning to DMNGKSLHGKAIKVEQAKKPSFQS [RBMY1A1], the protein stability index reads like this: under setting [1], 3.16 ± 0.2; under setting [2], 3.61 ± 0.2.
Consider DNHMSDKDESCYDNAEAAFSDDEE [INTS3], for which the protein stability index was determined as 5.55 ± 0.18 under setting [1] and 5.29 ± 0.38 under setting [2].
The like results for DNLKFSQEYESIDPGQQFTWEHSN [PTPRD] were, in that order, 4.57 ± 0.44 and 4.57 ± 0.11.
For the sequence DPNTAAGWLSVSDDLTSVTNHGYR [TRIM35], the protein stability index amounted to 4.32 ± 0.15 under setting [1] and 4.31 ± 0.13 under setting [2].
The like results for DQKERCIIVRTTNKKYYKKFSIPD [DPCD] were, in that order, 2.95 ± 0.21 and 3.06 ± 0.27.
The like results for DQLLLATGLNNGRIKIWDVYTGKL [WSB1] were, in that order, 2.17 ± 0.29 and 2.17 ± 0.31.
Turning to DRETQEGKPPTAHLDRTSVSSLSE [ELOA2], the protein stability index is, setting by setting: under setting [1], 5.37 ± 0.34; under setting [2], 5.42 ± 0.21.
On to DRPRCCLRGKECCINRFQQVESRW [BTBD1], for which the protein stability index by setting is: under setting [1], 2.89 ± 0.32; under setting [2], 3.06 ± 0.38.
The like results for DSAKREVKQKISPYFKSNDVVCKN [FAN1] were, in that order, 3.95 ± 0.35 and 4 ± 0.31.
As to DSAQMQNGGPSTPPASPPADGSPP [ANKRD40], the protein stability index by setting is: under setting [1], 5.24 ± 0.49; under setting [2], 5.23 ± 0.19.
The like results for DSEEPVSTHQEAENEKDRADQTVL [CHGB] were, in that order, 5.29 ± 0.56 and 5.65 ± 0.27.
The like results for DSLWHRSDSAPRNKISRFQAPISA [MFF] were, in that order, 3.43 ± 0.45 and 3.41 ± 0.19.
With DSTKTAFHRSQTLSYRNGYAIVRR [EFHC1], the protein stability index reads like this: under setting [1], 3.31 ± 0.12; under setting [2], 3.48 ± 0.32.
The like results for DSTNVEEAFKNILTEIYRIVSQKQ [RAB11B] were, in that order, 2.29 ± 0.2 and 2.49 ± 0.25.
The like results for DVNSFVTECEPSELFQLQTYSLPP [CDS1] were, in that order, 3.58 ± 0.29 and 3.54 ± 0.35.
In the case of EAAGVQIQMVNESLGYVRSQFLKL [CD207], the protein stability index came to 2.334 ± 0.019 under setting [1] and 2.3 ± 0.44 under setting [2].
Take EAAYLKILESSQTLLSVLKREAGN [SSNA1]: the protein stability index stood at 2.39 ± 0.13 under setting [1] and 2 ± 0.26 under setting [2].
The like results for EACLVAQCDALIDALNRRKAQLLA [TRIM9] were, in that order, 2.46 ± 0.29 and 2.65 ± 0.44.
As for EATTSDPQDLDMKKHRCKCCSIM [PALM], the protein stability index (treatment: DMSO, c terminus: native) came out at 4.3 ± 0.24 and the protein stability index (treatment: MLN4924 1 uM, 8 h, c terminus: native) amounted to 4.58 ± 0.23.
Regarding ECKHPSVFQHGDNSFRLLFDVVVI [MCOLN1], the protein stability index is, setting by setting: under setting [1], 2.9 ± 0.48; under setting [2], 3.02 ± 0.71.
The like results for ECQYYIDKLEYLDEKQRDPRIEAS [NET1] were, in that order, 4.12 ± 0.13 and 4.04 ± 0.19.
On to EDAYKIRIRIDDEPANLDILDTAG [RIT1], for which the protein stability index under setting [1] worked out at 3.38 ± 0.28 and the protein stability index under setting [2] is 3.47 ± 0.65.
On to EDDPSVLYVSLHRYDHGTFFPMGD [HDAC6], for which the protein stability index is 2.29 ± 0.31 under setting [1] and 2.37 ± 0.3 under setting [2].
Regarding EDNLSLVCLPRSEDDDCDDDDDDD [DRICH1], the protein stability index came out at 5.48 ± 0.42 under setting [1] and 5.51 ± 0.075 under setting [2].
The like results for EEAWVKIENLAKANPQYTVYSQAS [PPP2R5C] were, in that order, 3.29 ± 0.16 and 3.48 ± 0.18.
The like results for EEEDDDDIHITARIESDLTLESLS [DRICH1] were, in that order, 5.16 ± 0.12 and 5.16 ± 0.083.
The like results for EEEDLRRRLKYFFMSPCDKFRAKG [MCOLN1] were, in that order, 2.65 ± 0.41 and 3.15 ± 0.5.
